Broadly, the EC50 is the concentration at which the effect is half-maximal.

Experiment [1] concerns the target T1, biotin labeled soluble human SIRPα v1 ECD recombinant protein (human, UniProt P78324 31-373, biotin labeled).
T1 construct: extracellular domain
Description: competitive ELISA; competitor 050. The gist of the method: (§1)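 Excess competitor antibody co-incubated with biotinylated SIRPα v1 ECD on antibody-coated plates; bound protein detected with HRP-SA (37 °C, 1 h) and TMB (15 min, room temperature), stopped with 1N HCl, OD 450 nm read. Competition ratio calculated for epitope binning.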
For orientation: ELISA stands for enzyme-linked immunosorbent assay.

The target of experiment [2] is T2, Fc tagged human SIRPα v1 ECD recombinant protein (human, UniProt P78324 31-370).
T2 construct: range 1-370; cloned range M1-R370 includes the signal peptide; also called hSIRPα V1; not shown: human IgG Fc region (hFc) of the pCPC vector
T2 sequence (P78324 31-370 limits assumed): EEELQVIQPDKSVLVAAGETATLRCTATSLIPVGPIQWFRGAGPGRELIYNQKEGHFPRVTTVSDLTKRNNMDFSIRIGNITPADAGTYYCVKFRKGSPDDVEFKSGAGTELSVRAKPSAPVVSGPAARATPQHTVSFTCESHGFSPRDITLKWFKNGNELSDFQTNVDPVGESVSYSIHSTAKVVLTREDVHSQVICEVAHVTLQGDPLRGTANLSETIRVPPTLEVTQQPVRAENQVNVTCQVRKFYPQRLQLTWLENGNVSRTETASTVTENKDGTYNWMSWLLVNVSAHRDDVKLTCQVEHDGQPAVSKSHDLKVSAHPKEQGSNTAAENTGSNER
In words: ELISA. As to the method:
(§2) Binding specificity of the purified hybridoma antibodies against SIRP family members was detected by ELISA assay using recombinant proteins of Fc tagged human SIRPα v1 ECD, human SIRPα v2 ECD, human SIRPβ ECD and human SIRPγ ECD. Briefly the antibodies were incubated with ELISA microplate coated antigens at 37° C. for 1 hour. After washing, horseradish peroxidase (HRP) labeled anti-mouse or anti-human IgG 2nd Ab (Sigma) was added and incubated at 37° C. for 1 hour. Then, 100 μl/well of TMB solution (Biotechnology) was added. After incubation for 15 minutes at room temperature, the reaction was stopped by the addition of 50 μl of 1N HCl. OD 450 nm was read and EC₅₀ was calculated. Other than 060 and HEFLB, all of the antibodies as tested can bind with both human SIRPα v1 and SIRPα v2. 060 and HEFLB can bind with human SIRPα v1 but not v2. Other than 055, all of the antibodies as tested can bind with human SIRPβ. In comparison with other known anti-SIRPα antibodies, only 022, 035 and 050 can bind with human SIRPγ weakly.
(§3) The purified chimeric antibodies were applied for binding specificity analysis and species cross reactivity analysis (refer to methods described in Example 3.3 and 3.4). FIGS. 1A to 1D show binding specificity of anti-SIRPα chimeric antibodies against recombinant proteins of human SIRPα v1 ECD (A), human SIRPα v2 ECD (B), human SIRPβ ECD (C) and human SIRPγ ECD (D) as measured by ELISA analysis.

Experiment [3] concerns the target T3, full length human SIRPα v1 stably expressed on CHOK1 cells (human, UniProt P78324 31-504).
T3 construct: whole, on cells; also called CHOK1-human SIRPα v1-1B4 cells; CHOK1-human SIRPα v1
In words: FACS on CHOK1 cells. As to the method: Species cross reactivity of the purified hybridoma antibodies against human, cyno and mouse SIRPα was determined by FACS assay using CHOK1-human SIRPα v1-1B4 cells, CHOK1-cyno SIRPα-2A2 cells, and CHOK1-C57BL/6 mouse SIRPα-2.22 cells, which stably expressing SIRPα protein. Briefly the antibodies were incubated with 2×10⁵ target cells at 4° C. for 1 hour. After washing, fluorescence labeled anti-mouse or anti-human IgG 2nd antibody (Life Technologies) was added and incubated at 4° C. for 1 hour. Geometric median fluorescence intensity was detected and EC₅₀ was calculated. In particular, it is noted, in contrast to the other antibodies tested in the same experiment, 060 cannot bind with cyno SIRPα and 035 has cross reactivity against C57BL/6 mouse SIRPα. […]

The target of experiment [4] is T1, biotin labeled soluble human SIRPα v1 …. Description: competitive ELISA; competitor HEFLB. The gist of the method:
as §1

The target of experiment [5] is T3, full length human SIRPα v1 stably …. In words: FACS on CHOK1 cells. The source holds these as a separate data set.
Experiment [6] addresses T1, biotin labeled soluble human SIRPα v1 …. In words: competitive ELISA; competitor 29-AM4-5. The gist of the method: as §1
For experiment [7], the target named is T2, Fc tagged human SIRPα v1 ECD …. In words: ELISA. As to the method:
as §2, §3
The source holds these as a separate data set.

In experiment [8] the target is T3, full length human SIRPα v1 stably …. Description: FACS on CHOK1 cells. The procedure: (§4) Species cross reactivity of the purified hybridoma antibodies against human, cyno and mouse SIRPα was determined by FACS assay using CHOK1-human SIRPα v1-1B4 cells, CHOK1-cyno SIRPα-2A2 cells, and CHOK1-C57BL/6 mouse SIRPα-2.22 cells, which stably expressing SIRPα protein. Briefly the antibodies were incubated with 2×10⁵ target cells at 4° C. for 1 hour. After washing, fluorescence labeled anti-mouse or anti-human IgG 2nd antibody (Life Technologies) was added and incubated at 4° C. for 1 hour. Geometric median fluorescence intensity was detected and EC₅₀ was calculated. In particular, it is noted, in contrast to the other antibodies tested in the same experiment, 060 cannot bind with cyno SIRPα and 035 has cross reactivity against C57BL/6 mouse SIRPα.
as §3
This is another data set of the same source.

Experiment [9] addresses T4, full length C57BL/6 mouse SIRPα stably expressed on CHOK1 cells (mouse (C57BL/6), UniProt P97797 32-513).
T4 construct: whole, on cells; also called CHOK1-C57BL/6 mouse SIRPα-2.22 cells
T4 sequence (looked up): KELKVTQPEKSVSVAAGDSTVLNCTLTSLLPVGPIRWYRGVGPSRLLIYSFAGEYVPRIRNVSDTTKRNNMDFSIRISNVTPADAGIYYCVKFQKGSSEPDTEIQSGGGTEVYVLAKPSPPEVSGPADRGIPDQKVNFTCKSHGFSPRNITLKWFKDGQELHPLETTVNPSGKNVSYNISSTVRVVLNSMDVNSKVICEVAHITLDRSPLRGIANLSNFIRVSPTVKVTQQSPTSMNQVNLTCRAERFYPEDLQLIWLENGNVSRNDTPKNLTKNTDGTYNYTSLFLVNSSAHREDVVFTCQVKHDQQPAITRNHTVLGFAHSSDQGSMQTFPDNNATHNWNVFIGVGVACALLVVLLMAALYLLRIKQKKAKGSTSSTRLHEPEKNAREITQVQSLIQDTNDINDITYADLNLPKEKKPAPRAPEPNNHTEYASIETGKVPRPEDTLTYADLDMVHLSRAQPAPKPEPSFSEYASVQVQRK
Description: FACS on CHOK1 cells. As to the method:
as §4, §3

For experiment [10], the target named is T1, biotin labeled soluble human SIRPα v1 …. Description: competitive ELISA; competitor 055. Summed up:
as §1

Like-named read-outs stand apart in the source and are kept apart here.

T1 sequence (P78324 31-373): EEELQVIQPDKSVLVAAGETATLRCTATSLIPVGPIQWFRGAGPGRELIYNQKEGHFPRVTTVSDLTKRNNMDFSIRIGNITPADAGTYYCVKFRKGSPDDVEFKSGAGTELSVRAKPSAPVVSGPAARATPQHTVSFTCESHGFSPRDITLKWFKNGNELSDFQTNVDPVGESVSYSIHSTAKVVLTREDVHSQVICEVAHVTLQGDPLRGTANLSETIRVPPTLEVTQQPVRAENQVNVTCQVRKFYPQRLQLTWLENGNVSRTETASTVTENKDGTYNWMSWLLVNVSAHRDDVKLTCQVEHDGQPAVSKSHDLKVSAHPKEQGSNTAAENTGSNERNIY
T3 sequence (P78324 31-504): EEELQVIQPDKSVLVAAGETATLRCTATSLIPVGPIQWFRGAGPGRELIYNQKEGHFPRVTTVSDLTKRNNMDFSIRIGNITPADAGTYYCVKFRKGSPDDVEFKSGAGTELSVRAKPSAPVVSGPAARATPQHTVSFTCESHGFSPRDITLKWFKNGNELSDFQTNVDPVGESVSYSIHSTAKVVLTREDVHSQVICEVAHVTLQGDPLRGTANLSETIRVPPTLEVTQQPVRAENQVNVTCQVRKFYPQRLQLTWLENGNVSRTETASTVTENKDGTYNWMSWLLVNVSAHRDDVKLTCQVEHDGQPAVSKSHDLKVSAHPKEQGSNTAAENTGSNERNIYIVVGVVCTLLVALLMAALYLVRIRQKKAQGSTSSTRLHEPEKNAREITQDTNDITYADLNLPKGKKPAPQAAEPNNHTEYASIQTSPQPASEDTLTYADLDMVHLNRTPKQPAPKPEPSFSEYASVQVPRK

B1: reference antibody 29-AM4-5 (antibody, V domains shown)
VH: EVQLVESGGGLVQPGGSLRLSCAASGFNISYYFIHWVRQAPGKGLEWVASVYSSFGYTYYADSVKGRFTISADTSKNTAYLQMNSLRAEDTAVYYCARFTFPGLFDGFFGAYLGSLDYWGQGTLVTVSS
VL: DIQMTQSPSSLSASVGDRVTITCRASQSVSSAVAWYQQKPGKAPKLLIYSASSLYSGVPSRFSGSRSGTDFTLTISSLQPEDFATYYCQQAVNWVGALVTFGQGTKVEIK
B1: the “% Competition” value came out at 7% in experiment [1], 25% in experiment [4], 91% in experiment [6] and 0% in [10]. Further, the half-maximal effective concentration (EC50) in [2] turned out to be 0.11 nM; in experiment [3] it was 13.6 nM; in [5] it was 13.6 nM; in experiment [7], 0.11 nM; in [8], 13.6 nM. In experiment [9], the binding result is on record as “no binding (tested: 10 nM)”.

B2: reference antibody HEFLB (antibody, V domains shown)
VH: EVQLVQSGAEVKKPGESLRISCKASGYSFTSYWVHWVRQMPGKGLEWMGNIDPSDSDTHYSPSFQGHVTLSVDKSISTAYLQLSSLKASDTAMYYCVRGGTGTLAYFAYWGQGTLVTVSS
VL: DVVMTQSPLSLPVTLGQPASISCRSSQSLVHSYGNTYLYWFQQRPGQSPRLLIYRVSNRFSGVPDRFSGSGSGTDFTLKISRVEAEDVGVYYCFQGTHVPYTFGGGTKVEIK
Consider B2, for which the “% Competition” value in experiment [1] is 4%; in experiment [4], 88%; in experiment [6] it was 70%; in experiment [10], 1%. Also, the EC50 is 0.11 nM in experiment [2]; 11.2 nM in experiment [3]; 11.2 nM in experiment [5]; 0.11 nM in experiment [7]; 11.2 nM in [8]. The binding result in experiment [9] is on record as “no binding (tested: 10 nM)”.

Values taken from US20210347908A1 (ELPISCIENCE SUZHOU BIOPHARMA, published 2021).
